“And” between values parts separate entries of the source, which are not always exact repeats. Equal entries are not always repeated.
Settings: Arachis hypogaea, Thermal, DSC, Sodium phosphate 0.05 M, NaCl 0.15 M, transition: 3, reversible: yes, whole UniProt chain shown

B1: Galactose-binding lectin wild type, P02872 (protein)
chain: MKPFCVFLTFFLLLAASSKKVDSAETVSFNFNSFSEGNPAINFQGDVTVLSNGNIQLTNLNKVNSVGRVLYAMPVRIWSSATGNVASFLTSFSFEMKDIKDYDPADGIIFFIAPEDTQIPAGSIGGGTLGVSDTKGAGHFVGVEFDTYSNSEYNDPPTDHVGIDVNSVDSVKTVPWNSVSGAVVKVTVIYDSSTKTLSVAVTNDNGDITTIAQVVDLKAKLPERVKFGFSASGSLGGRQIHLIRSWSFTSTLITTTRRSIDNNEKKIMNMASA
Tm (pH 5.5): 56.9 °C and 61.2 °C
unfolding enthalpy (calorimetric) (pH 5.5): 212 kcal/mol and 113 kcal/mol
Tm (pH 6): 57.5 °C
unfolding enthalpy (calorimetric) (pH 6): 218 kcal/mol
Tm (pH 6.5): 58 °C and 62.5 °C
unfolding enthalpy (calorimetric) (pH 6.5): 225 kcal/mol and 121 kcal/mol
Tm (pH 7): 58.5 °C
unfolding enthalpy (calorimetric) (pH 7): 231 kcal/mol
unfolding enthalpy (van 't Hoff) (pH 7.4): 75.1 kcal/mol and 149 kcal/mol
Tm (pH 7.8): 60.1 °C and 64.4 °C
unfolding enthalpy (calorimetric) (pH 7.8): 245 kcal/mol and 132 kcal/mol
Tm (pH 8.2): 61.2 °C and 65 °C
unfolding enthalpy (calorimetric) (pH 8.2): 251 kcal/mol and 135 kcal/mol

Source: FireProtDB (doi:10.1021/bi982828s)
